Assay: yeast display, Sf9 membrane polyspecificity reagent, FACS + sequencing; frameworks hold sequencing errors
How it was run: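 A synthetic nanobody library was expressed on Saccharomyces cerevisiae BJ5465 by galactose induction for 36–48 hours. The library was stained for 1 hour at 4 °C with 10% biotinylated, detergent-solubilized Sf9 membrane reagent and enriched with streptavidin microbeads before FACS. Low and high (top ~1%) gates were set on anti-HA fluorescence for expression and streptavidin fluorescence for reagent binding, and each polyreactivity label reflects the gate of origin.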

Sequence | polyreactivity (PSR sort gate)
QVQLVESGGGLVQAGGSLRLSCAASGIIFAHYAMGWYRQAPGKERELVAAISSSGATTYYADSVKGRFTISRDNAKNTVYFQMNSLKPEDTAVYYCNTETYHVRRLFDYWGQGTQVTVSS | low polyreactivity
QVQLVESGGGLVQAGGSLRLSCAASGIIFALYAMGWYRQAPGKERELVATITYSGGSTYYADSVKGRFTISRDNAKNTVYLQMNSLKPEDSAVYYCNRDQWPWESGYAYNYWGQGTQVTVSS | low polyreactivity
QVQLVESGGGLVQAGGSLRLSCAASGIIFATNGMGWYRQAPGKEREFVASSTNGGSTNYADSVKGRFTISRDNAKNTVYLQMNSLKPEDTAVYYCAAAASDDYDYPTEYEYWGQGTQVTVSS | high polyreactivity
QVQLVESGGGLVQAGGSLRLSCAASGIIFAYYAMGWYRQAPGKERELVAAISWNSGYTYYADSVKGRFTISRDNAKNTVYLQMNSLKPEDSAVYYCAAESYYSYSYYRPYEYYYWGQGTQLTVSS | high polyreactivity
QVQLVESGGGLVQAGGSLRLSCAASGIIFAYYAMGWYRQAPGKERELVASITNTGSTYYADSVKGRFTISRDNAKNTVYLQMNSLKPEDTAVYFCNAVLSSNTKWRYPGDYLGQGTQVTVSS | low polyreactivity
QVQLVESGGGLVQAGGSLRLSCAASGIIFDDNAMGWYRQAPGKERELVAAISSGSTTNYADSVKGRFTISRDNEKNTVYLQMTSLKPEDTAVYYCAAVDGLAFDYWGQGTQVTVSS | low polyreactivity
QVQLVESGGGLVQAGGSLRLSCAASGIIFDDYAMGWYRQAPGKERELVAAISVSGGSTYYADSVKGRFTISRDNAKNTVYLQMNSLKPEDTAVYYCAARLIVGRFLRYDYWGQGTQVSVSS | high polyreactivity
QVQLVESGGGLVQAGGSLRLSCAASGIIFDEYAMGWYRQAPGKERELVAAISSRGTNTYYADSVKGRFTISRDHAKNTVYLQMNSLKPEDTAVYYCAARRPPVTRHFGYWGQGTQVTVSS | high polyreactivity
QVQLVESGGGLVQAGGSLRLSCAASGIIFDGNAMGWYRQAPGKERELVASITSDSSTNYADSVKGRFTISRDNAKNTVYLQMNSLKPEDTAVYYCAADHWIAPRRDYWGQGTQVTVSS | low polyreactivity
QVQLVESGGGLVQAGGSLRLSCAASGIIFDLNAMGWYRQAPGKERELVAAITSGGSTYYADSVKGRFTISRDNAKNTVYLQMNSLKPEDTAVYYCAADYQAGDKLYDYWGQGTQVTLSS | low polyreactivity
QVQLVESGGGLVQAGGSLRLSCAASGIIFDNYAMGWYRQAPGKERELVAAISPGGSTYYADSVKGRFTISRDNAKNTVYLQMNSLKPEDTAVYYCNARKYTWYSSRFIRFDYWGQGTQVTVSS | high polyreactivity
QVQLVESGGGLVQAGGSLRLSCAASGIIFDRYAKGWYRQAPGKERELVAAITYGGGSTYYADSVKGRFTISRDNAKNTVYLQMNSLKPEDTSVYYCAAVPRSGMYYWGQGTQVTVSS | high polyreactivity
QVQLVESGGGLVQAGGSLRLSCAASGIIFDRYAMGWYRQAPGKEREFVAAISRRGGSTYYADSVKGRFTISRDNAKNTVYLQMNSLKPEDTAVYYCAKEIRYYSSVSESDYWGQGTQVTVSS | high polyreactivity
QVQLVESGGGLVQAGGSLRLSCAASGIIFDRYTMGWYRQAPGKERELVAAIDDSDDSTYYADSVKGRFTISRDNAKNTVYLQMNSLKPEDTAVYYCAAEYTWFEYIDFGYWGQGTQVTVSS | high polyreactivity
QVQLVESGGGLVQAGGSLRLSCAASGIIFDSYAMGWYRPAPGKERELVAAITSDSGRTYYADSVKGRFTISRDNAKNTVYLQMNSLKPEDTAVYYCAKRWDCPYDYWGQGTQVTVSS | low polyreactivity
QVQLVESGGGLVQAGGSLRLSCAASGIIFDWYAMGWYRQAPGKERELVAAISDSGDTTYYADSVKGRFTISRDNAKNTVYLQMNSLKPEDTAVYYCAAVSYQYYDLDYWGQGTQVTVSS | high polyreactivity
QVQLVESGGGLVQAGGSLRLSCAASGIIFDYNAMGWYRPAPGKERELVAAITSTDNTNYADSVKGRFTISRDNAKNTVYLQMNCLKPEDTAVYYCNTDYWLSVVYAMDYWGQGTQVTVSS | low polyreactivity
QVQLVESGGGLVQAGGSLRLSCAASGIIFDYYAMGWYRQAPGKERELVAAINRNGGTTYYADSVKGRFTISRDNAKNSVYLQMNSLKPEDTAVYYCAAVDFGWITYYYWGQGTQVTVAS | high polyreactivity
QVQLVESGGGLVQAGGSLRLSCAASGIIFDYYAMGWYRQAPGKERELVAAISKRGGSTYYADSVKGRFTISRDNAKNTVYLQMNSLKPEDTAVYYCAAEYSKRWWYYYWGQGTQVTVSS | high polyreactivity
QVQLVESGGGLVQAGGSLRLSCAASGIIFDYYAMGWYRQAPGKERELVASNSWSGGGTYYADSVKGRFTISRDNAKNTVYFQMNRLNPEDTAVYYCAADGSTVNAPRWSDPYDYWGQGTQVTVSS | low polyreactivity
QVQLVESGGGLVQAGGSLRLSCAASGIIFDYYTMGWYRQAPGKARELVAGITRSGGRTYYADSVKGRFTISRDNAKNTVYLQMNSLKPEETAGYYCAAVQRRTYVKYESWGQGTQVTVSS | high polyreactivity
QVQLVESGGGLVQAGGSLRLSCAASGIIFERNAMGWYRQAPGKERELVAAISSNGGSTYYADSVKGRFTISRDNAKNTVYLQMNSLKPEDTAVYYCAAQGVYAGSRYYYWGQGTQVTVSS | high polyreactivity
QVQLVESGGGLVQAGGSLRLSCAASGIIFFFYAMGWYRQEPGKERELVAAISDEGVSTDYADSVKGRFTISRDNAKNTVYLQMNSLKPEDTAVYYCAAKTERVYPWFSFGYWGQGTQVTVSS | low polyreactivity
QVQLVESGGGLVQAGGSLRLSCAASGIIFFRYAMGWYRQAPGKERELVAGISGSGGSTYYADSVKGRFTISRDNAKNTVYLQMNSLKPEDTAVYYCAKQWKSNIYYQGGYWGQGTQVTVSS | high polyreactivity
QVQLVESGGGLVQAGGSLRLSCAASGIIFFSNAMGWYRQAPAQEMELVAAITGGSSTNYADSVKGRFTISRDNAKNTVYLQMNSLKPEDTAVYYCNAPTKSTPRSEPIPYYEFDYWGQGTQVTVSS | low polyreactivity
QVQLVESGGGLVQAGGSLRLSCAASGIIFFYNAMGWYRQAPGKERELVAAISSDGSTYYADSVKGRFTISRDNAKNTVYLQMNSLKPEDTAVYYCNAGSLRYGPYNHWGQGTQVTVSS | low polyreactivity
QVQLVESGGGLVQAGGSLRLSCAASGIIFGDNAMGWYRQAPGKERELVAAITIGGTSTYYADSVKGRFTISRDNAKNTVYLQMNSLKPEDTAVYYCAKTILYDCDYWGQGTQVTVSS | low polyreactivity
QVQLVESGGGLVQAGGSLRLSCAASGIIFGENAMGWYRQAPGKERELVAAINSVGSTYYADSVKGRFTISRDNAKNTVYLQMNSLKPEDTAVYYCNARLAKVRVKDDYWGQGTQVTVSS | low polyreactivity
QVQLVESGGGLVQAGGSLRLSCAASGIIFGENAMGWYRQAPGKERELVAAITESGGSTYYADSVKGRFTISRDNAKNTVYLQMNSLKPEDTAVYYCNALPFRYGKRRGYWGQGTQVTVSS | low polyreactivity
QVQLVESGGGLVQAGGSLRLSCAASGIIFGGNVMGRYRQAPGKVRELVAAITWSGGTTYYADSVKGRFTISRDNAKNTVYLQMNSLKPEDTAVYYCAADRVYLDYVAGTYDYWGQGTQVTVSS | low polyreactivity
